{
  "source": "patent US20150299298A1",
  "about": "(TRELLIS BIOSCIENCE, published 2015)",
  "binders": {"B1": {"name": "TRL1337 (antibody, V domains shown)", "VH": "QVQLLESGPGLVKPSETPSLTCTVSGGSIRSYYWSWIRQPPGKGLEWIGYIYYSGSTNYNPSLKSRVTISVDMSKNQFSLKLSSVTAADTAMYYCARVYGGSGSYDFDYWGQGTLVTVSS", "VL": "DIVLTQSPSASGSPGQSVTISCTGTSSDVGGYNYVSWYQQLPGKAPKLMIYEVTKRPSGVPDRFSGSKSGNTASLTVSGLQAEDEADYYCSSFAGSNNHVVFGGGTKLTVL"}, "B2": {"name": "TRL1068 (antibody, V domains shown)", "VH": "QVQLVESGPGLVKPSETLSLTCRVSGDSNRPSYWSWIRQAPGKAMEWIGYVYDSGVTIYNPSLKGRVTISLDTSKTRFSLKLTSVIAADTAVYYCARERFDRTSYKSWWGQGTQVTVSS", "VL": "DIVLTQAPGTLSLSPGDRATLSCRASQRLGGTSLAWYQHRSGQAPRLILYGTSNRATDTPDRFSGSGSGTDFVLTISSLEPEDFAVYYCQQYGSPPYTFGQGTTLDIK"}, "B3": {"name": "TRL1338 (antibody, V domains shown)", "VH": "QLTLRESGPTLVKPTQTLTLTCTFSGFSLSTNGVGVGWIRQPPGKALEWLAIIYWDDDKRYSPSLKSRLTITKDTSKNQVVLTLTNMDPVDTGTYYCAHILGASNYWTGYLRYYFDYWGQGTLVTVST", "VL": "DIEMTQSPSVSVSPGQTARITCSGEPLAKQYAYWYQQKSGQAPVVVIYKDTERPSGIPERFSGSSSGTTVTLTISGVQAEDEADYHCESGDSSGTYPVFGGGTKLTVL"}, "B4": {"name": "TRL1230 (antibody, V domains shown)", "VH": "QVQLVQSGGGLVKPGGSLRLSCGASGFNLSSYSMNWVRQAPGKGLEWVSSISSRSSYIYYADSVQGRFTISRDNAKNSLYLQMNSLRAEDTAIYYCARVSPSTYYYYGMDVWGQGTTVTVSS", "VL": "DIVLTQPSSVSVSPGQTARITCSGDELPKQYAYWYQQKPGQAPVLVIYKDNERPSGIPERFSGSSSGTTVTLTISGVQAEDEADYYCQSADSSGTYVVFGGGTKLTVL"}},
  "key": {"[1]": {"target": "T1, IHF from Staphylococcus aureus (Staphylococcus aureus, UniProt Q5HFV0 1-90)", "T1 construct": "mature; not shown: poly-histidine tag", "T1 sequence": "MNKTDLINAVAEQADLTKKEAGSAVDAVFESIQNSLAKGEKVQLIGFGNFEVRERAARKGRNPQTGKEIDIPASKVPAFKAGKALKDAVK", "test": "ELISA on IHF from S. aureus (IHF-Sa ELISA), OD 450 nm against [mAb] nM"}, "[2]": {"target": "T1, IHF from Staphylococcus aureus", "test": "ELISA on IHF from S. aureus (IHF-Sa ELISA), OD 450 nm against [mAb] nM", "remark": "listed apart in the source"}, "[3]": {"target": "T2, IHF from Klebsiella pneumoniae (Klebsiella pneumoniae, UniProt A6TAI1 1-99)", "T2 construct": "also called IHF (Kp); K. pneumoniae", "T2 sequence": "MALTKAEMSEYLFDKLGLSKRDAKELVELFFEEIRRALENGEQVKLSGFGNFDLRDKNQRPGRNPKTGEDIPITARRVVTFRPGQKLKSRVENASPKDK", "test": "ELISA at pH 7.5"}, "[4]": {"target": "T3, IHF from Pseudomonas aeruginosa (Pseudomonas aeruginosa, UniProt Q51472 2-100)", "T3 construct": "mature; also called IHF (Pa); P. aeruginosa; not shown: poly-histidine tag", "T3 sequence": "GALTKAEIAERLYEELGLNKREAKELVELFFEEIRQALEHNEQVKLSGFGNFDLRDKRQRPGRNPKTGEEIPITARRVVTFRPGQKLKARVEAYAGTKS", "test": "ELISA at pH 7.5"}, "[5]": {"target": "T1, IHF from Staphylococcus aureus", "test": "ELISA at pH 7.5"}, "[6]": {"target": "T2, IHF from Klebsiella pneumoniae", "test": "ELISA at pH 2.5"}, "[7]": {"target": "T3, IHF from Pseudomonas aeruginosa", "test": "ELISA at pH 2.5"}, "[8]": {"target": "T1, IHF from Staphylococcus aureus", "test": "ELISA at pH 2.5"}, "[9]": {"target": "T2, IHF from Klebsiella pneumoniae", "test": "ELISA at pH 3.5"}, "[10]": {"target": "T3, IHF from Pseudomonas aeruginosa", "test": "ELISA at pH 3.5"}, "[11]": {"target": "T1, IHF from Staphylococcus aureus", "test": "ELISA at pH 3.5"}, "[12]": {"target": "T2, IHF from Klebsiella pneumoniae", "test": "ELISA at pH 4.5"}, "[13]": {"target": "T3, IHF from Pseudomonas aeruginosa", "test": "ELISA at pH 4.5"}, "[14]": {"target": "T1, IHF from Staphylococcus aureus", "test": "ELISA at pH 4.5"}, "[15]": {"target": "T2, IHF from Klebsiella pneumoniae", "test": "ELISA at pH 6.5"}, "[16]": {"target": "T3, IHF from Pseudomonas aeruginosa", "test": "ELISA at pH 6.5"}, "[17]": {"target": "T1, IHF from Staphylococcus aureus", "test": "ELISA at pH 6.5"}, "[18]": {"target": "T2, IHF from Klebsiella pneumoniae", "test": "ELISA at pH 5.5"}, "[19]": {"target": "T3, IHF from Pseudomonas aeruginosa", "test": "ELISA at pH 5.5"}, "[20]": {"target": "T1, IHF from Staphylococcus aureus", "test": "ELISA at pH 5.5"}, "[21]": {"target": "IHF from Staphylococcus aureus (Staphylococcus aureus) (UniProt Q5HFV0)", "test": "ELISA"}},
  "note": "Read-outs that look alike come from different tables or passages of the source.",
  "data": [
    {"binder": "B1", "values": [
      {"measurement": "Kd", "setting": "[1]", "result": 6, "unit": "nM"},
      {"measurement": "Kd", "setting": "[2]", "result": 6, "unit": "nM"}
    ]},
    {"binder": "B2", "values": [
      {"measurement": "Affinity", "setting": "[3]", "result": 6, "unit": "pM"},
      {"measurement": "Affinity", "setting": "[4]", "result": 5, "unit": "pM"},
      {"measurement": "Affinity", "setting": "[5]", "result": 0.01, "unit": "nM"},
      {"measurement": "Affinity", "setting": "[6]", "result": 2.6, "unit": "nM"},
      {"measurement": "Affinity", "setting": "[7]", "result": 2.1, "unit": "nM"},
      {"measurement": "Affinity", "setting": "[8]", "result": 3.5, "unit": "nM"},
      {"measurement": "Affinity", "setting": "[9]", "result": 3, "unit": "nM"},
      {"measurement": "Affinity", "setting": "[10]", "result": 0.26, "unit": "nM"},
      {"measurement": "Affinity", "setting": "[11]", "result": 0.36, "unit": "nM"},
      {"measurement": "Affinity", "setting": "[12]", "result": 0.05, "unit": "nM"},
      {"measurement": "Affinity", "setting": "[13]", "result": 9, "unit": "pM"},
      {"measurement": "Affinity", "setting": "[14]", "result": 0.012, "unit": "nM"},
      {"measurement": "Affinity", "setting": "[15]", "result": 6, "unit": "pM"},
      {"measurement": "Affinity", "setting": "[16]", "result": 5, "unit": "pM"},
      {"measurement": "Affinity", "setting": "[17]", "result": 0.012, "unit": "nM"},
      {"measurement": "Affinity", "setting": "[18]", "result": 9, "unit": "pM"},
      {"measurement": "Affinity", "setting": "[19]", "result": 6, "unit": "pM"},
      {"measurement": "Affinity", "setting": "[20]", "result": 0.012, "unit": "nM"}
    ]},
    {"binder": "B3", "values": [
      {"measurement": "Kd", "setting": "[1]", "result": 42, "unit": "nM"},
      {"measurement": "Kd", "setting": "[2]", "result": 42, "unit": "nM"}
    ]},
    {"binder": "B4", "values": [
      {"measurement": "OD", "setting": "[21]", "result": 0.1, "unit": "OD"}
    ]}
  ]
}
